Experimental findings from the supplement of paper PMC9170038 are described below.

The subject of this data set is MS2 coat protein. The experiment in a line: apparent KD of MS2 coat protein; designed switch direction (-1 OFF switch, 1 ON switch): -1; higher = weaker reporter binding. In outline: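 Designed RNA switches with common flanks were transcribed on Illumina chips by stalled E. coli RNA polymerase and titrated with SNAP-549-labelled MS2 coat protein, from 0.7 or 1.5 nM doubling to 3 µM, in Tris-HCl pH 7.5 buffer with KCl, MgCl2, BSA, DTT, tRNA and Tween-20. Steps lasted 0.8–1.5 h (lowest) to 10–20 min (highest). Titrations ran without input, with 200 uM small-molecule ligand, or with an oligonucleotide input. Normalised cluster fluorescence was curve-fitted, and apparent KD is the per-design median over clusters.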

[1] abbreviates: input ligand: microRNA oligo, concentration not stated.
[2] abbreviates: Eterna round: R95, input ligand: microRNA oligo, concentration not stated.
Setting [3] is: Eterna round: R95, input ligand: FMN 200 uM.
[4] abbreviates: Eterna round: R95, input ligand: none.

For “AUAAAUCAUGUAGGAUAUGCGUGGCGAAGCUAUGCAGAAGGACAUGAGGAUCACCCAUGUGCUUCCGUCUGCGUACAGACGGUA [Mat - Exclusion NG 1 - Mod of JL - D10] (Eterna round: R96, puzzle: Exclusion NG 1)”, the “apparent KD of MS2 coat protein” value came to 125 nM (input ligand: FMN 200 uM), 77.6 nM under setting [1] and 142 nM (input ligand: none).
With “UAUAUAUAGUAAGGAUAUAUAUUUUUUUUAUAAAUAGAAGGUACAGACAUGAGGAUCACCCAUGUUAUAAUAUGGACAUGUGGA [JMF's Solution 2] (Eterna round: R96, puzzle: Exclusion NG 1)”, the “apparent KD of MS2 coat protein” value under setting [1] turned out to be 77.4 nM.
As to “AAUAAUAGCGAGGAUAUCGUAUCGGAAACGAUACGAGAAGGCGUAACAUGAGGAUCACCCAUGUUCCUCAAUAA [Fiskers Ex 6 - 3] (Eterna round: R96, puzzle: Exclusion 6)”, the “apparent KD of MS2 coat protein” value is 354 nM (input ligand: FMN 200 uM), 39.8 nM under setting [1] and 41 nM (input ligand: none).
In the case of “AUAACGAUAGUCAGGAUAUCGGUGGCAUCCGUCACCGAGAAGGGACAUGAGGAUCACCCAUGUUAAGCCUAUGA [Eternabot (L1) Solution 69] (Eterna round: R97, puzzle: Brourd's mod of Exclusion 4)”, the “apparent KD of MS2 coat protein” value by setting is: (input ligand: FMN 200 uM) 11.5 nM; (input ligand: none) 19.3 nM.
For “AAAUACCGGUGAGGAUAUUUAUAAUAGAGCUUUAUGAUAUACAUGAGGAUCACCCAUGUUACUUUAAAGAAGGCAUCGGAAUAA [Mat - Exclusion NG 2 - Mod of JL - D93] (Eterna round: R96, puzzle: Exclusion NG 2)”, the “apparent KD of MS2 coat protein” value runs as follows: (input ligand: FMN 200 uM) 15.4 nM; under setting [1], 13.9 nM; (input ligand: none) 18.9 nM.
With “AGAAUGCGAGGAUAUACAGCAAGAUAGCAAAAGACCCUCCAACAUGAGGAUCACCCAUGUAGAAGGCGCAUUCA [Eternabot (Original) Solution 19] (Eterna round: R97, puzzle: Exclusion 2)”, the “apparent KD of MS2 coat protein” value reads like this: (input ligand: FMN 200 uM) 110 nM; (input ligand: none) 109 nM.
As to “UUGAUGUGAGGAUAUAUUUAGUGUUUUCUUUAUGUUUUAUAACUUGAGGAUCACCCAAGUAGAAGGCGCUACGU [JR_Ex2_Sub066] (Eterna round: R97, puzzle: Exclusion 2)”, the “apparent KD of MS2 coat protein” value was 19 nM (input ligand: FMN 200 uM) and 13.9 nM (input ligand: none).
“AUGUUACUCUGAGGAUAUUGUUUAUUCUUCUCACAUGAGGAUCACCCAUGUUUCCGUGUUUACCGCAAGAAGGCAGUUUUGUUU [JR_ExcNG2_Sub028] (Eterna round: R96, puzzle: Exclusion NG 2)”: the “apparent KD of MS2 coat protein” value by setting is: (input ligand: FMN 200 uM) 41.1 nM; under setting [1], 29 nM; (input ligand: none) 31.8 nM.
As for “UAUUAACAAGUAAGAUCCAACAUGAGGAUCACCCAUGUGCUCGUCUUAUAAGGUACUGUGACGAAAGUCACGGUACC [Eli 87 v1] (Eterna round: R97, puzzle: Sensor, turn-off variant 1)”, the “apparent KD of MS2 coat protein” value came to 21.2 nM (input ligand: FMN 200 uM) and 21.8 nM (input ligand: none).
On the same counts, the results for “CUUUACAAGCUAAGAUCCUACAUGAGGAUCACCCAUGUGGUCCGGUGACGUGAGUCACCGGACUUAGCUCGUCUUGA [salish99_S_TOV1_R5_093] (Eterna round: R97, puzzle: Sensor, turn-off variant 1)” are 32 nM and 39.1 nM.
For “UGCAUGCUAGGAUAUACGAAACAUUAGGGUUCGUCGUAUGAACAUGAGGAUCACCCAUGUAGAAGGAGCGUGCU [Mod6 of JL-ex2-2.15 mat747 mod] (puzzle: Exclusion 2)”, under setting [2], the “apparent KD of MS2 coat protein” value was determined as 16.8 nM.
On the same count and under the same terms, the value for “UGAUCUUUUGUUAGGAUAUGCUGUUGUUUUCAACAGCAGAAGGGACAUGAGGAUCACCCAUGUCUUGUCAUAAA [Magic-04] (puzzle: Brourd's mod of Exclusion 4)” was 12.7 nM.
In the case of “UAAUACAAGCAAAGAUCUUACAUGAGGAUCACCCAUGUGCUCGUCUUAUAAAGUACUAUCACGAAAGUGAUAGUACA [Mat - Sensor v3 - turn-off var 1 - Eli Mod - D93] (puzzle: Sensor v3, turn-off variant 1)”, the “apparent KD of MS2 coat protein” value is, setting by setting: under setting [3], 20.4 nM; under setting [2], 181 nM; under setting [4], 31.9 nM.
Take “GCGGGCCCGGGAGGAUAUACAUGAGGAUCACCCAUGUGGGCCCGGGCCCGCGGGCCCGGGCCCGUGUAGAAGGCCCGGGCCCGC [-64.9, -63.3 kcal, A 14%] (Eterna round: R96, puzzle: Exclusion NG 2)”: the “apparent KD of MS2 coat protein” value worked out at 28 nM (input ligand: FMN 200 uM), 10.1 nM under setting [1] and 14.2 nM (input ligand: none).
On to “GCAAGCUUUUUCAAUAAGAACAUGAGGAUCACCCAUGUUUAAGGUAUUACUUUUGGGCUCUUUAGUGCUAGUCUUAU [JR_STOV1_Sub036] (Eterna round: R97, puzzle: Sensor, turn-off variant 1)”, for which the “apparent KD of MS2 coat protein” value is 45.9 nM (input ligand: FMN 200 uM) and 45.5 nM (input ligand: none).
On the same counts, the results for “CAGUACUGAGGAUAUACAUGAGGAUCACCCAUGUGAGAGAUACUAAUGAGGUCGAUUAGUAGAAGGCAGUACUG [Mat X3R4 m4] (Eterna round: R97, puzzle: Exclusion 3)” are 240 nM and 17.5 nM.
Turning to “GUCGUGCGGCAGUGCUGUACGAGUACAUGAGGAUCACCCAUGUAGGAUAUGGUUCGUUUUGCGUGCUAGAAGGGCGUGCGUUGA [Excl-NG3-LRO20] (Eterna round: R96, puzzle: Exclusion NG 3)”, the “apparent KD of MS2 coat protein” value stood at 20 nM (input ligand: FMN 200 uM), 14 nM under setting [1] and 22 nM (input ligand: none).
For “GCCAGAGGAGGAUAUCUAAUAUAUCACAUGAGGAUCACCCAUGUCCAGCGAAAGCUGGAGGGAGAAGGCCUCUGGC [Fiskers Ex 5 - 23] (Eterna round: R96, puzzle: Exclusion 5)”, the “apparent KD of MS2 coat protein” value (input ligand: FMN 200 uM) came to 74.8 nM, the “apparent KD of MS2 coat protein” value under setting [1] amounted to 172 nM and the “apparent KD of MS2 coat protein” value (input ligand: none) amounted to 252 nM.
For the sequence “CUAGUCCGAGGAUAUAUAUUGUGAUACAUGAGGAUCACCCAUGUAAUAAUAUGGAAAUAAAUAGAAGGCGGACUAG [Mat - Exclusion 5 - JL mod - D53] (puzzle: Exclusion 5)”, the “apparent KD of MS2 coat protein” value under setting [3] is 56.4 nM, the “apparent KD of MS2 coat protein” value under setting [2] was determined as 36.8 nM and the “apparent KD of MS2 coat protein” value under setting [4] came to 27 nM.
The matching figures for “UCGACCGGAGGAUAUUACGUAAAGUACAUGAGGAUCACCCAUGUGUGGUACCUCGAGUCGUAAGAAGGCCGAAAUA [Teisor] (puzzle: Exclusion 5)”: 283 nM, 605 nM and 505 nM.
On to “GCAAGCUUUUCGAUCCUCGACAUGAGGAUCACCCAUGUGCUCGAAUUGUUUAGUACUAUCACGAAAGUGAUAGUACA [Sensor, turn off variant 1 v.3] (Eterna round: R97, puzzle: Sensor, turn-off variant 1)”, for which the “apparent KD of MS2 coat protein” value runs as follows: (input ligand: FMN 200 uM) 1570 nM; (input ligand: none) 1570 nM.
On to “UCAUAACAUGAGGAUCACCCAUGUGAGGAUAUGAUACUAUGUACUUCGGUACAUAGUAUCAGAAGGCACAUACU [Ex1-3: 11] (puzzle: Exclusion 1)”, for which the “apparent KD of MS2 coat protein” value under setting [2] stood at 88.9 nM.
For the sequence “GCACGGAGUGUAGGAUAUCUGUGCGAUUAGCUCAGAGAAGGACACAUGAGGAUCACCCAUGUGUAACUCAACAAUAAUCCGUGC [Eli exng1 - 073] (Eterna round: R96, puzzle: Exclusion NG 1)”, the “apparent KD of MS2 coat protein” value (input ligand: FMN 200 uM) came to 18.3 nM, the “apparent KD of MS2 coat protein” value under setting [1] came to 8.53 nM and the “apparent KD of MS2 coat protein” value (input ligand: none) was determined as 11.9 nM.
As for “UGUUGUCGCGCAGGAUAUGGCCAACAGGCCCUAGGAUAUCGGAAACGAGAAGGAGCGCCAACAGGCGAGAAGGGCGGGACAACU [pwkr exNG2 2xF7 2xFMN.18] (Eterna round: R96, puzzle: Exclusion NG 2)”, the “apparent KD of MS2 coat protein” value by setting is: (input ligand: FMN 200 uM) 85.9 nM; under setting [1], 912 nM; (input ligand: none) 995 nM.
Regarding “GAAAACGUAGGAUAUUAAUACUUAGACAUGAGGAUCACCCAUGUUUGGUGGGUCGGAGAAUGAGAAGGGCGAUGAA [EX5 #13] (Eterna round: R97, puzzle: Exclusion 5)”, the “apparent KD of MS2 coat protein” value worked out at 107 nM (input ligand: FMN 200 uM) and 153 nM (input ligand: none).
For “CUAUCUUGCAAGGAUAUGCAAUUUAUUAUUUAUGCAGAAGGUGCUACAUGAGGAUCACCCAUGUUUCUGGGUUU [JR_E6_Sub046] (puzzle: Exclusion 6)”, the “apparent KD of MS2 coat protein” value under setting [2] was found to be 117 nM.
Turning to “CCAAGCUUAUUCAUUAACAACAUGAGGAUCACCCAUGUAUAGGCAAUUAUGUCUGGGCUCUUUAGUGCUCGUCUUAU [Sensor-V1 #24] (Eterna round: R97, puzzle: Sensor, turn-off variant 1)”, the “apparent KD of MS2 coat protein” value came to 18 nM (input ligand: FMN 200 uM) and 19.8 nM (input ligand: none).
The matching figures for “AAGUCUGGUGUAAGGAUAUUGUUAGACUUGGUGAGCAAGAAGGUACAUGAGGAUCACCCAUGUGGGAUACUAGC [Eternabot (Original) Solution 41] (Eterna round: R97, puzzle: Brourd's mod of Exclusion 4)”: 40.5 nM and 40 nM.
On to “AGUACUAACAGCUGACUGUUAGUACUGUAGGUUUGUGUUACAUGAGGAUCACCCAUGUCCUCAUAGGCUCGUCUUGU [Mat - Sensor v3 - Turn-off var 2 - D97] (puzzle: Sensor v3, turn-off variant 2)”, for which the “apparent KD of MS2 coat protein” value reads like this: under setting [3], 291 nM; under setting [2], 100 nM; under setting [4], 284 nM.
As to “ACCGAACAUGAGGAUCACCCAUGUAAGGAUAUCCGUGGACAGCGCCAAAGUUACCGGCGGAGAAGGUGCAUGGU (Eterna round: R97, puzzle: Exclusion 1)”, the “apparent KD of MS2 coat protein” value runs as follows: (input ligand: FMN 200 uM) 24.6 nM; (input ligand: none) 19.2 nM.
